B1: library; numbered along this chain (parent)
chain: MRKPRAAVGSGHRKQAASQEGRQKHAKNNSQAKPSACDGLARQPEEVVLQASVSSYHLFRDVAEVTAFRGSLLSWYDQEKRDLPWRRRAEDEMDLDRRAYAVWVSEVMLQQTQVATVINYYTGWMQKWPTLQDLASASLEEVNQLWAGLGYYSRGRRLQEGARKVVEELGGHMPRTAETLQQLLPGVGRYTAGAIASIAFGQATGVVDGNVARVLCRVRAIGADPSSTLVSQQLWGLAQQLVDPARPGDFNQAAMELGATVCTPQRPLCSQCPVESLCRARQRVEQEQLLASGSLSGSPDVEECAPNTGQCHLCLPPSEPWDQTLGVVNFPRKASRKPPREESSATCVLEQPGALGAQILLVQRPNSGLLAGLWEFPSVTWEPSEQLQRKALLQELQRWAGPLPATHLRHLGEVVHTFSHIKLTYQVYGLALEGQTPVTTVPPGARWLTQEEFHTAAVSTAMKKVFRVYQGQQPGTCMGSKRSQVSSPCSRKKPRMGQQVLDNFFRSHISTDAHSLNSAAQ

Variants of: B1
Experiment: 8OG:A repair function score (normalized; synonymous = 0, nonsense = -1) (normalized log-likelihood score); higher = more repair activity (WT-like)
Settings: with 8OG:A DNA repair reporter (GFP) in HEK-293 MUTYH KO cells
Outline: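 With 10 pg/ml doxycycline, MUTYH knockout HEK-293 cells carrying lentiviral MUTYH cDNA NNN codon-scan libraries were co-transfected with mCherry and an 8OG:A GFP repair reporter. Viable mCherry+ cells were sorted into GFP+ (repair) and GFP− bins at 72 h, three replicates per tile, and tile amplicons were sequenced. Per-tile Rosace fitness scores were then normalized into a repair function score anchored on synonymous and nonsense distributions. Medians were fixed at 0 for synonymous and -1 for nonsense, excluding variants under 300 counts per million at the start.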

Variant	8OG:A repair function score
MRKPRAAVGSGHRKQAASQEGRQKHAKNNSQAKPSACDGLARQPEEVVLQASVSSYHLFRDVAEVTAFRGSLLSWYDQEKRDLPWRRRAEDEMDLDRRAYAVWVSEVMLQQTQVATVINYYTGWMQKWPTLQDLASASLEEVNQLWAGLGYYSRGRRLQEGARKVVEELGGHMPRTAETLQQLLPGVGRYTAGAIASIAFGQATGVVDGNVARVLCRVRAIGADPSSTLVSQQLWGLAQQLVDPARPGDFNQAAMELGATVCTPQRPLCSQCPVESLCRARQRVEQEQLLASGSLSGSPDVEECAPNTGQCHLCLPPSEPWDQTLGVVNFPRKASRKPPREESSATCVLEQPGALGAQILLVQRPNSGLLAGLWEFPSVTWEPSEQLQRKALLQELQRNAGPLPATHLRHLGEVVHTFSHIKLTYQVYGLALEGQTPVTTVPPGARWLTQEEFHTAAVSTAMKKVFRVYQGQQPGTCMGSKRSQVSSPCSRKKPRMGQQVLDNFFRSHISTDAHSLNSAAQ [W399N]	-0.463
MRKPRAAVGSGHRKQAASQEGRQKHAKNNSQAKPSACDGLARQPEEVVLQASVSSYHLFRDVAEVTAFRGSLLSWYDQEKRDLPWRRRAEDEMDLDRRAYAVWVSEVMLQQTQVATVINYYTGWMQKWPTLQDLASASLEEVNQLWAGLGYYSRGRRLQEGARKVVEELGGHMPRTAETLQQLLPGVGRYTAGAIASIAFGQATGVVDGNVARVLCRVRAIGADPSSTLVSQQLWGLAQQLVDPARPGDFNQAAMELGATVCTPQRPLCSQCPVESLCRARQRVEQEQLLASGSLSGSPDVEECAPNTGQCHLCLPPSEPWDQTLGVVNFPRKASRKPPREESSATCVLEQPGALGAQILLVQRPNSGLLAGLWEFPSVTWEPSEQLQRKALLQELQRDAGPLPATHLRHLGEVVHTFSHIKLTYQVYGLALEGQTPVTTVPPGARWLTQEEFHTAAVSTAMKKVFRVYQGQQPGTCMGSKRSQVSSPCSRKKPRMGQQVLDNFFRSHISTDAHSLNSAAQ [W399D]	-0.666
MRKPRAAVGSGHRKQAASQEGRQKHAKNNSQAKPSACDGLARQPEEVVLQASVSSYHLFRDVAEVTAFRGSLLSWYDQEKRDLPWRRRAEDEMDLDRRAYAVWVSEVMLQQTQVATVINYYTGWMQKWPTLQDLASASLEEVNQLWAGLGYYSRGRRLQEGARKVVEELGGHMPRTAETLQQLLPGVGRYTAGAIASIAFGQATGVVDGNVARVLCRVRAIGADPSSTLVSQQLWGLAQQLVDPARPGDFNQAAMELGATVCTPQRPLCSQCPVESLCRARQRVEQEQLLASGSLSGSPDVEECAPNTGQCHLCLPPSEPWDQTLGVVNFPRKASRKPPREESSATCVLEQPGALGAQILLVQRPNSGLLAGLWEFPSVTWEPSEQLQRKALLQELQRFAGPLPATHLRHLGEVVHTFSHIKLTYQVYGLALEGQTPVTTVPPGARWLTQEEFHTAAVSTAMKKVFRVYQGQQPGTCMGSKRSQVSSPCSRKKPRMGQQVLDNFFRSHISTDAHSLNSAAQ [W399F]	-0.284
MRKPRAAVGSGHRKQAASQEGRQKHAKNNSQAKPSACDGLARQPEEVVLQASVSSYHLFRDVAEVTAFRGSLLSWYDQEKRDLPWRRRAEDEMDLDRRAYAVWVSEVMLQQTQVATVINYYTGWMQKWPTLQDLASASLEEVNQLWAGLGYYSRGRRLQEGARKVVEELGGHMPRTAETLQQLLPGVGRYTAGAIASIAFGQATGVVDGNVARVLCRVRAIGADPSSTLVSQQLWGLAQQLVDPARPGDFNQAAMELGATVCTPQRPLCSQCPVESLCRARQRVEQEQLLASGSLSGSPDVEECAPNTGQCHLCLPPSEPWDQTLGVVNFPRKASRKPPREESSATCVLEQPGALGAQILLVQRPNSGLLAGLWEFPSVTWEPSEQLQRKALLQELQRAAGPLPATHLRHLGEVVHTFSHIKLTYQVYGLALEGQTPVTTVPPGARWLTQEEFHTAAVSTAMKKVFRVYQGQQPGTCMGSKRSQVSSPCSRKKPRMGQQVLDNFFRSHISTDAHSLNSAAQ [W399A]	-0.229
MRKPRAAVGSGHRKQAASQEGRQKHAKNNSQAKPSACDGLARQPEEVVLQASVSSYHLFRDVAEVTAFRGSLLSWYDQEKRDLPWRRRAEDEMDLDRRAYAVWVSEVMLQQTQVATVINYYTGWMQKWPTLQDLASASLEEVNQLWAGLGYYSRGRRLQEGARKVVEELGGHMPRTAETLQQLLPGVGRYTAGAIASIAFGQATGVVDGNVARVLCRVRAIGADPSSTLVSQQLWGLAQQLVDPARPGDFNQAAMELGATVCTPQRPLCSQCPVESLCRARQRVEQEQLLASGSLSGSPDVEECAPNTGQCHLCLPPSEPWDQTLGVVNFPRKASRKPPREESSATCVLEQPGALGAQILLVQRPNSGLLAGLWEFPSVTWEPSEQLQRKALLQELQRCAGPLPATHLRHLGEVVHTFSHIKLTYQVYGLALEGQTPVTTVPPGARWLTQEEFHTAAVSTAMKKVFRVYQGQQPGTCMGSKRSQVSSPCSRKKPRMGQQVLDNFFRSHISTDAHSLNSAAQ [W399C]	0.313
MRKPRAAVGSGHRKQAASQEGRQKHAKNNSQAKPSACDGLARQPEEVVLQASVSSYHLFRDVAEVTAFRGSLLSWYDQEKRDLPWRRRAEDEMDLDRRAYAVWVSEVMLQQTQVATVINYYTGWMQKWPTLQDLASASLEEVNQLWAGLGYYSRGRRLQEGARKVVEELGGHMPRTAETLQQLLPGVGRYTAGAIASIAFGQATGVVDGNVARVLCRVRAIGADPSSTLVSQQLWGLAQQLVDPARPGDFNQAAMELGATVCTPQRPLCSQCPVESLCRARQRVEQEQLLASGSLSGSPDVEECAPNTGQCHLCLPPSEPWDQTLGVVNFPRKASRKPPREESSATCVLEQPGALGAQILLVQRPNSGLLAGLWEFPSVTWEPSEQLQRKALLQELQRHAGPLPATHLRHLGEVVHTFSHIKLTYQVYGLALEGQTPVTTVPPGARWLTQEEFHTAAVSTAMKKVFRVYQGQQPGTCMGSKRSQVSSPCSRKKPRMGQQVLDNFFRSHISTDAHSLNSAAQ [W399H]	-0.291
MRKPRAAVGSGHRKQAASQEGRQKHAKNNSQAKPSACDGLARQPEEVVLQASVSSYHLFRDVAEVTAFRGSLLSWYDQEKRDLPWRRRAEDEMDLDRRAYAVWVSEVMLQQTQVATVINYYTGWMQKWPTLQDLASASLEEVNQLWAGLGYYSRGRRLQEGARKVVEELGGHMPRTAETLQQLLPGVGRYTAGAIASIAFGQATGVVDGNVARVLCRVRAIGADPSSTLVSQQLWGLAQQLVDPARPGDFNQAAMELGATVCTPQRPLCSQCPVESLCRARQRVEQEQLLASGSLSGSPDVEECAPNTGQCHLCLPPSEPWDQTLGVVNFPRKASRKPPREESSATCVLEQPGALGAQILLVQRPNSGLLAGLWEFPSVTWEPSEQLQRKALLQELQREAGPLPATHLRHLGEVVHTFSHIKLTYQVYGLALEGQTPVTTVPPGARWLTQEEFHTAAVSTAMKKVFRVYQGQQPGTCMGSKRSQVSSPCSRKKPRMGQQVLDNFFRSHISTDAHSLNSAAQ [W399E]	-0.679
MRKPRAAVGSGHRKQAASQEGRQKHAKNNSQAKPSACDGLARQPEEVVLQASVSSYHLFRDVAEVTAFRGSLLSWYDQEKRDLPWRRRAEDEMDLDRRAYAVWVSEVMLQQTQVATVINYYTGWMQKWPTLQDLASASLEEVNQLWAGLGYYSRGRRLQEGARKVVEELGGHMPRTAETLQQLLPGVGRYTAGAIASIAFGQATGVVDGNVARVLCRVRAIGADPSSTLVSQQLWGLAQQLVDPARPGDFNQAAMELGATVCTPQRPLCSQCPVESLCRARQRVEQEQLLASGSLSGSPDVEECAPNTGQCHLCLPPSEPWDQTLGVVNFPRKASRKPPREESSATCVLEQPGALGAQILLVQRPNSGLLAGLWEFPSVTWEPSEQLQRKALLQELQRIAGPLPATHLRHLGEVVHTFSHIKLTYQVYGLALEGQTPVTTVPPGARWLTQEEFHTAAVSTAMKKVFRVYQGQQPGTCMGSKRSQVSSPCSRKKPRMGQQVLDNFFRSHISTDAHSLNSAAQ [W399I]	-0.15
MRKPRAAVGSGHRKQAASQEGRQKHAKNNSQAKPSACDGLARQPEEVVLQASVSSYHLFRDVAEVTAFRGSLLSWYDQEKRDLPWRRRAEDEMDLDRRAYAVWVSEVMLQQTQVATVINYYTGWMQKWPTLQDLASASLEEVNQLWAGLGYYSRGRRLQEGARKVVEELGGHMPRTAETLQQLLPGVGRYTAGAIASIAFGQATGVVDGNVARVLCRVRAIGADPSSTLVSQQLWGLAQQLVDPARPGDFNQAAMELGATVCTPQRPLCSQCPVESLCRARQRVEQEQLLASGSLSGSPDVEECAPNTGQCHLCLPPSEPWDQTLGVVNFPRKASRKPPREESSATCVLEQPGALGAQILLVQRPNSGLLAGLWEFPSVTWEPSEQLQRKALLQELQRLAGPLPATHLRHLGEVVHTFSHIKLTYQVYGLALEGQTPVTTVPPGARWLTQEEFHTAAVSTAMKKVFRVYQGQQPGTCMGSKRSQVSSPCSRKKPRMGQQVLDNFFRSHISTDAHSLNSAAQ [W399L]	0.1
MRKPRAAVGSGHRKQAASQEGRQKHAKNNSQAKPSACDGLARQPEEVVLQASVSSYHLFRDVAEVTAFRGSLLSWYDQEKRDLPWRRRAEDEMDLDRRAYAVWVSEVMLQQTQVATVINYYTGWMQKWPTLQDLASASLEEVNQLWAGLGYYSRGRRLQEGARKVVEELGGHMPRTAETLQQLLPGVGRYTAGAIASIAFGQATGVVDGNVARVLCRVRAIGADPSSTLVSQQLWGLAQQLVDPARPGDFNQAAMELGATVCTPQRPLCSQCPVESLCRARQRVEQEQLLASGSLSGSPDVEECAPNTGQCHLCLPPSEPWDQTLGVVNFPRKASRKPPREESSATCVLEQPGALGAQILLVQRPNSGLLAGLWEFPSVTWEPSEQLQRKALLQELQRKAGPLPATHLRHLGEVVHTFSHIKLTYQVYGLALEGQTPVTTVPPGARWLTQEEFHTAAVSTAMKKVFRVYQGQQPGTCMGSKRSQVSSPCSRKKPRMGQQVLDNFFRSHISTDAHSLNSAAQ [W399K]	-0.616
MRKPRAAVGSGHRKQAASQEGRQKHAKNNSQAKPSACDGLARQPEEVVLQASVSSYHLFRDVAEVTAFRGSLLSWYDQEKRDLPWRRRAEDEMDLDRRAYAVWVSEVMLQQTQVATVINYYTGWMQKWPTLQDLASASLEEVNQLWAGLGYYSRGRRLQEGARKVVEELGGHMPRTAETLQQLLPGVGRYTAGAIASIAFGQATGVVDGNVARVLCRVRAIGADPSSTLVSQQLWGLAQQLVDPARPGDFNQAAMELGATVCTPQRPLCSQCPVESLCRARQRVEQEQLLASGSLSGSPDVEECAPNTGQCHLCLPPSEPWDQTLGVVNFPRKASRKPPREESSATCVLEQPGALGAQILLVQRPNSGLLAGLWEFPSVTWEPSEQLQRKALLQELQRGAGPLPATHLRHLGEVVHTFSHIKLTYQVYGLALEGQTPVTTVPPGARWLTQEEFHTAAVSTAMKKVFRVYQGQQPGTCMGSKRSQVSSPCSRKKPRMGQQVLDNFFRSHISTDAHSLNSAAQ [W399G]	-0.541
MRKPRAAVGSGHRKQAASQEGRQKHAKNNSQAKPSACDGLARQPEEVVLQASVSSYHLFRDVAEVTAFRGSLLSWYDQEKRDLPWRRRAEDEMDLDRRAYAVWVSEVMLQQTQVATVINYYTGWMQKWPTLQDLASASLEEVNQLWAGLGYYSRGRRLQEGARKVVEELGGHMPRTAETLQQLLPGVGRYTAGAIASIAFGQATGVVDGNVARVLCRVRAIGADPSSTLVSQQLWGLAQQLVDPARPGDFNQAAMELGATVCTPQRPLCSQCPVESLCRARQRVEQEQLLASGSLSGSPDVEECAPNTGQCHLCLPPSEPWDQTLGVVNFPRKASRKPPREESSATCVLEQPGALGAQILLVQRPNSGLLAGLWEFPSVTWEPSEQLQRKALLQELQRMAGPLPATHLRHLGEVVHTFSHIKLTYQVYGLALEGQTPVTTVPPGARWLTQEEFHTAAVSTAMKKVFRVYQGQQPGTCMGSKRSQVSSPCSRKKPRMGQQVLDNFFRSHISTDAHSLNSAAQ [W399M]	-0.301

Source: the supplement of paper PMC11908140
